The values that follow come from PMC9440770.

This assay has as its target fibrinogen (UniProt P02671). Nature of the assay: SPR.

Substitutions are numbered along the chain they refer to. Names may count otherwise.

Chain of UniProt P02671 (P02671 36-866, chain 1 of 3): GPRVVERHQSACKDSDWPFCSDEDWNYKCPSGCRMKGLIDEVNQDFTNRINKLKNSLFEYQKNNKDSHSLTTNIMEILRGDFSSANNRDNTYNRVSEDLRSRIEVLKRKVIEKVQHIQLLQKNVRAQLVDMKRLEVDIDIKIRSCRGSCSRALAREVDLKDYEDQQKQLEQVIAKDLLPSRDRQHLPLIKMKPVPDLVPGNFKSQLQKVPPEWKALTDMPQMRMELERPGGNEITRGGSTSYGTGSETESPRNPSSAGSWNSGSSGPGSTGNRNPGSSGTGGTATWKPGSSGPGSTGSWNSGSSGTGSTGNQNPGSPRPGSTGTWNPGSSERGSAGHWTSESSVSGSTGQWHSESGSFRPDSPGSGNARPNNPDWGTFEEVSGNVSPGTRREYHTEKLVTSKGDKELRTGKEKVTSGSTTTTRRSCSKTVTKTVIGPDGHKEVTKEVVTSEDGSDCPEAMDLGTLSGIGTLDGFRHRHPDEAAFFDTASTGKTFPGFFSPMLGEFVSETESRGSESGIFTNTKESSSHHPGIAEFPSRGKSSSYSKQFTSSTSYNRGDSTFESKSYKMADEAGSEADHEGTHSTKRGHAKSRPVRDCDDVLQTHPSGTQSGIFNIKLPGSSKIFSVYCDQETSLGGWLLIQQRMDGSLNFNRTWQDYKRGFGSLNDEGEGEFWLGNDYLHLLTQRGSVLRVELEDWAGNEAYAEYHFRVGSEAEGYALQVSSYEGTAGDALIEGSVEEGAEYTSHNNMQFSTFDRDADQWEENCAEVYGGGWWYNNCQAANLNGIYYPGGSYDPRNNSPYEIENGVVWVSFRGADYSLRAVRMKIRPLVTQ
Chain of UniProt P02671 (P02675 45-491, chain 2 of 3, further chain): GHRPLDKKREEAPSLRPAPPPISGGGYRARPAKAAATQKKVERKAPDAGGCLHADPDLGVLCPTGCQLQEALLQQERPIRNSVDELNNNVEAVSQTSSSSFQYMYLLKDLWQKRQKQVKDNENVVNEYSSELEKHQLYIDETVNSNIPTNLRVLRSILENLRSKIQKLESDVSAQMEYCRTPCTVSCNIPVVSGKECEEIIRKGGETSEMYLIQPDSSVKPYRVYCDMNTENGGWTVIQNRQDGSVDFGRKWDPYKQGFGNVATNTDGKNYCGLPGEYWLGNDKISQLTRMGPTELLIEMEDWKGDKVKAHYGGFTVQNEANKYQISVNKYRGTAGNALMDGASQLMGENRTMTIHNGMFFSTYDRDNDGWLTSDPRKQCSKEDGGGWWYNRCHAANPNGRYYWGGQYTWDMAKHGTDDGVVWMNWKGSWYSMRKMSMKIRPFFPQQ
Chain of UniProt P02671 (P02679 27-453, chain 3 of 3, further chain): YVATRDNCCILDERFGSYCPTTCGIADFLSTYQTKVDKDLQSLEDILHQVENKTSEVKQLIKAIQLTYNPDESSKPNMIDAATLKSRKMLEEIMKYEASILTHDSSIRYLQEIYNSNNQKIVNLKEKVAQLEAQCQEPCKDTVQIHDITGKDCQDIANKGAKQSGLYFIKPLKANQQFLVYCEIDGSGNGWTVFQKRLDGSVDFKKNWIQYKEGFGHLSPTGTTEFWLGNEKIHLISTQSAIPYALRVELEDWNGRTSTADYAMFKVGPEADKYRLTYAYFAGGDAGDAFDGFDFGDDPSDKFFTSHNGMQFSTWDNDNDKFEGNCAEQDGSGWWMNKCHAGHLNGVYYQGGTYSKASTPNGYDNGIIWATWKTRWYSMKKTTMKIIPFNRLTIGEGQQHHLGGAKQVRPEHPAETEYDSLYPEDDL

B1: human αX I-domain (residues Q129 to G319), wild type (domain or fragment)
chain: QEQDIVFLIDGSGSISSRNFATMMNFVRAVISQFQRPSTQFSLMQFSNKFQTHFTFEEFRRSSNPLSLLASVHQLQGFTYTATAIQNVVHRLFHASYGARRDAAKILIVITDGKKEGDSLDYKDVIPMADAAGIIRYAIGVGLAFQNRNSWKELNDIASKPSQEHIFKVEDFDALKDIQNQLKEKIFAIEG
B1 had a dissociation constant (Kd) of 20 µM.

B2: human αX I-domain I314G construct (domain or fragment)
chain: B1 chain with I186G
Consider B2, for which the Kd is 100 µM.
